Assay results as given in article PMC3522573 (Oncogene, 2012).

Columns and labels:
Assay in all cases: two-hybrid
[1] = target: T1, Gal4(DBD)-Neh6^ΔDSAPGS (mouse, UniProt Q60795 300-380, Δ373-378 (called ΔDSAPGS))
T1 sequence (looked up): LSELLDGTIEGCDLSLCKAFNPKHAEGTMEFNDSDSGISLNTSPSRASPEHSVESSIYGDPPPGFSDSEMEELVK

[2] = target: T2, Gal4(DBD)-Neh6 (mouse, UniProt Q60795 300-380)
T2 sequence (looked up): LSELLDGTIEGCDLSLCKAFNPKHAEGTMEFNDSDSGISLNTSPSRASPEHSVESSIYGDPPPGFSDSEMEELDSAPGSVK

[3] = target: T3, Gal4(DBD)-Neh6^ΔSDSGIS (mouse, UniProt Q60795 300-380, Δ333-338 (called ΔSDSGIS))
T3 sequence (looked up): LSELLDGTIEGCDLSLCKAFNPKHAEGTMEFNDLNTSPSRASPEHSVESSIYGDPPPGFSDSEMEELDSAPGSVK

B1: Gal4(AD)-WD40 (domain or fragment, mouse, UniProt Q3ULA2 303-581, looked up)
chain: SKGVYCLQYDDQKIVSGLRDNTIKIWDKSTLECKRILTGHTGSVLCLQYDERVIITGSSDSTVRVWDVNAGEMLNTLIHHCEAVLHLRFNNGMMVTCSKDRSIAVWDMASPTDITLRRVLVGHRAAVNVVDFDDKYIVSASGDRTIKVWNTSTCEFVRTLNGHKRGIACLQYRDRLVVSGSSDNTIRLWDIECGACLRVLEGHEELVRCIRFDNKRIVSGAYDGKIKVWDLMAALDPRAPAGTLCLRTLVEHSGRVFRLQFDEFQIVSSSHDDTILIWD
fold increase in Gal4-driven luciferase activity with GSK-3β^Δ9 co-expressed [1]: 3.1 fold | fold increase in Gal4-driven luciferase activity over either fusion alone [2]: ~3.2 fold | fold increase in Gal4-driven luciferase activity with GSK-3β^Δ9 co-expressed [2]: 4 fold | fold increase in Gal4-driven luciferase activity over either fusion alone [3]: 1.5 fold
